The results in this text go back to PMC9884178 (Nature, 2022).

In general, EC50 refers to the midpoint of the concentration-response curve. Higher therefore signals a need for much substance.

This experiment deals with T1, WaaL from Cupriavidus metallidurans (CmWaaL) in MSP1E3D1 nanodiscs, as used for ELISA (Cupriavidus metallidurans CH34).
T1 chain: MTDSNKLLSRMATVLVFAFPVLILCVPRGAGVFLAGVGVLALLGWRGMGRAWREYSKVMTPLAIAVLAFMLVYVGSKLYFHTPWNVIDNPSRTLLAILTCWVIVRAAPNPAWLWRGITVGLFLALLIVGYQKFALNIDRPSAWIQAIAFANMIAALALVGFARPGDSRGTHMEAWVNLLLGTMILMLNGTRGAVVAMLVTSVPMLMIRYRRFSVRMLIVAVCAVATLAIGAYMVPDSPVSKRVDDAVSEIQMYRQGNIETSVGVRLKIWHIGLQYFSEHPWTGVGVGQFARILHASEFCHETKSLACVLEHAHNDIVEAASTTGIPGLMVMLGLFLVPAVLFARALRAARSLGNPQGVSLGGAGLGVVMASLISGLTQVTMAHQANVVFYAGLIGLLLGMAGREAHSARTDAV
The experiment in a line: ELISA. A general note: An ELISA detects its analyte on a solid surface through an enzyme-linked reagent.

B1: WaB10 Fab (synthetic antigen binder against CmWaaL) (Fab, V domains shown)
VH: EVQLVESGGGLVQPGGSLRLSCAASGFNVYSSSIHWVRQAPGKGLEWVAYISSYYGSTYYADSVKGRFTISADTSKNTAYLQMNSLRAEDTAVYYCARIMFKWVSPNMAFDYWGQGTLVTVSS
VL: DIQMTQSPSSLSASVGDRVTITCRASQSVSSAVAWYQQKPGKAPKLLIYSASSLYSGVPSRFSGSRSGTDFTLTISSLQPEDFATYYCQQSYYSLVTFGQGTKVEIK
For B1, the response was half-maximal at 1.87 nM (EC50).
